Data taken from US20110263454A1, “Methods of Identifying Functional Characteristics of Promoters, Transcription Modifying Proteins and Transcription Modulating Agents” (Salk Institute for Biological Studies, priority 2008, published 2011).

B1: GCNF: Germ Cell Nuclear Factor (NR6A1, GCNF1), cDNA driver (protein, UniProt Q15406 1-480, looked up)
Nuclear receptor subfamily 6 …: MERDEPPPSGGGGGGGSAGFLEPPAALPPPPRNGFCQDELAELDPGTISVSDDRAEQRTCLICGDRATGLHYGIISCEGCKGFFKRSICNKRVYRCSRDKNCVMSRKQRNRCQYCRLLKCLQMGMNRKAIREDGMPGGRNKSIGPVQISEEEIERIMSGQEFEEEANHWSNHGDSDHSSPGNRASESNQPSPGSTLSSSRSVELNGFMAFREQYMGMSVPPHYQYIPHLFSYSGHSPLLPQQARSLDPQSYSLIHQLLSAEDLEPLGTPMLIEDGYAVTQAELFALLCRLADELLFRQIAWIKKLPFFCELSIKDYTCLLSSTWQELILLSSLTVYSKQIFGELADVTAKYSPSDEELHRFSDEGMEVIERLIYLYHKFHQLKVSNEEYACMKAINFLNQDIRGLTSASQLEQLNKRYWYICQDFTEYKYTHQPNRFPDLMMCLPEIRYIAGKMVNVPLEQLPLLFKVVLHSCKTSVGKE
B2: NR4a3: NR4a3 (NR4A3; NOR1), nuclear hormone receptor cDNA driver (protein, UniProt Q92570 1-626, looked up)
Nuclear receptor subfamily 4 …: MPCVQAQYSPSPPGSSYAAQTYSSEYTTEIMNPDYTKLTMDLGSTEITATATTSLPSISTFVEGYSSNYELKPSCVYQMQRPLIKVEEGRAPSYHHHHHHHHHHHHHHQQQHQQPSIPPASSPEDEVLPSTSMYFKQSPPSTPTTPAFPPQAGALWDEALPSAPGCIAPGPLLDPPMKAVPTVAGARFPLFHFKPSPPHPPAPSPAGGHHLGYDPTAAAALSLPLGAAAAAGSQAAALESHPYGLPLAKRAAPLAFPPLGLTPSPTASSLLGESPSLPSPPSRSSSSGEGTCAVCGDNAACQHYGVRTCEGCKGFFKRTVQKNAKYVCLANKNCPVDKRRRNRCQYCRFQKCLSVGMVKEVVRTDSLKGRRGRLPSKPKSPLQQEPSQPSPPSPPICMMNALVRALTDSTPRDLDYSRYCPTDQAAAGTDAEHVQQFYNLLTASIDVSRSWAEKIPGFTDLPKEDQTLLIESAFLELFVLRLSIRSNTAEDKFVFCNGLVLHRLQCLRGFGEWLDSIKDFSLNLQSLNLDIQALACLSALSMITERHGLKEPKRVEELCNKITSSLKDHQSKGQALEPTESKVLGALVELRKICTLGLQRIFYLKLEDLVSPPSIIDKLFLDTLPF
B3: PR: Progesterone Receptor (NR3C3), cDNA driver (protein, UniProt P06401 1-933, looked up)
Progesterone receptor: MTELKAKGPRAPHVAGGPPSPEVGSPLLCRPAAGPFPGSQTSDTLPEVSAIPISLDGLLFPRPCQGQDPSDEKTQDQQSLSDVEGAYSRAEATRGAGGSSSSPPEKDSGLLDSVLDTLLAPSGPGQSQPSPPACEVTSSWCLFGPELPEDPPAAPATQRVLSPLMSRSGCKVGDSSGTAAAHKVLPRGLSPARQLLLPASESPHWSGAPVKPSPQAAAVEVEEEDGSESEESAGPLLKGKPRALGGAAAGGGAAAVPPGAAAGGVALVPKEDSRFSAPRVALVEQDAPMAPGRSPLATTVMDFIHVPILPLNHALLAARTRQLLEDESYDGGAGAASAFAPPRSSPCASSTPVAVGDFPDCAYPPDAEPKDDAYPLYSDFQPPALKIKEEEEGAEASARSPRSYLVAGANPAAFPDFPLGPPPPLPPRATPSRPGEAAVTAAPASASVSSASSSGSTLECILYKAEGAPPQQGPFAPPPCKAPGASGCLLPRDGLPSTSASAAAAGAAPALYPALGLNGLPQLGYQAAVLKEGLPQVYPPYLNYLRPDSEASQSPQYSFESLPQKICLICGDEASGCHYGVLTCGSCKVFFKRAMEGQHNYLCAGRNDCIVDKIRRKNCPACRLRKCCQAGMVLGGRKFKKFNKVRVVRALDAVALPQPVGVPNESQALSQRFTFSPGQDIQLIPPLINLLMSIEPDVIYAGHDNTKPDTSSSLLTSLNQLGERQLLSVVKWSKSLPGFRNLHIDDQITLIQYSWMSLMVFGLGWRSYKHVSGQMLYFAPDLILNEQRMKESSFYSLCLTMWQIPQEFVKLQVSQEEFLCMKVLLLLNTIPLEGLRSQTQFEEMRSSYIRELIKAIGLRQKGVVSSSQRFYQLTKLLDNLHDLVKQLHLYCLNTFIQSRALSVEFPEMMSEVIAAQLPKILAGMVKPLLFHKK
B4: NR4a2: NR4a2 (NR4A2; NURR1), nuclear hormone receptor cDNA driver (protein, UniProt P43354 1-598, looked up)
Nuclear receptor subfamily 4 …: MPCVQAQYGSSPQGASPASQSYSYHSSGEYSSDFLTPEFVKFSMDLTNTEITATTSLPSFSTFMDNYSTGYDVKPPCLYQMPLSGQQSSIKVEDIQMHNYQQHSHLPPQSEEMMPHSGSVYYKPSSPPTPTTPGFQVQHSPMWDDPGSLHNFHQNYVATTHMIEQRKTPVSRLSLFSFKQSPPGTPVSSCQMRFDGPLHVPMNPEPAGSHHVVDGQTFAVPNPIRKPASMGFPGLQIGHASQLLDTQVPSPPSRGSPSNEGLCAVCGDNAACQHYGVRTCEGCKGFFKRTVQKNAKYVCLANKNCPVDKRRRNRCQYCRFQKCLAVGMVKEVVRTDSLKGRRGRLPSKPKSPQEPSPPSPPVSLISALVRAHVDSNPAMTSLDYSRFQANPDYQMSGDDTQHIQQFYDLLTGSMEIIRGWAEKIPGFADLPKADQDLLFESAFLELFVLRLAYRSNPVEGKLIFCNGVVLHRLQCVRGFGEWIDSIVEFSSNLQNMNIDISAFSCIAALAMVTERHGLKEPKRVEELQNKIVNCLKDHVTFNNGGLNRPNYLSKLLGKLPELRTLCTQGLQRIFYLKLEDLVPPPAIIDKLFLDTLPF

System: mUCP3 promoter
Test: NHR-promoter luciferase screen, mUCP3 promoter
Format: cell-based, mouse
Conditions: mUCP3 promoter reporter; HR without or with its ligand; relative to control
Outline: (§1)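 CV-1 cells were co-transfected with 50 ng NHR (homodimer or NHR/RXR heterodimer), 100 ng promoter-luciferase construct and 50 ng LacZ. Luciferase was normalized to LacZ and to a no-NHR/no-ligand control.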

Molecule	Normalized Luc. act., normalized to control
B1	1.0
B2	1.2
B3	1.3
B4	1.0

Same assay, conditions: mUCP3 promoter reporter; hormone receptor (HR) without or with its ligand

Molecule	Luc. act., normalized to lacZ
B1	0.66
B2	0.81
B3	0.86
B4	0.68

Same assay, conditions: transcription factor +/- ligand; control = 1.00

Molecule	mUCP3 promoter reporter activity
B1	0.98
B2	1.19
B3	1.27
B4	1.01

System: MCP-1 promoter
Test: NHR-promoter luciferase screen, MCP-1 promoter
Format: cell-based
Conditions: MCP-1 promoter reporter; HR without or with its ligand; relative to control
Outline: as §1

Molecule	Normalized Luc. act., normalized to control
B1	0.0
B2	0.5
B3	1.2
B4	0.6

Same assay, conditions: MCP-1 promoter reporter; hormone receptor (HR) without or with its ligand

Molecule	Luc. act., normalized to lacZ
B2	51.9
B3	128.0
B4	58.9

Same assay, conditions: transcription factor +/- ligand; control = 1.00

Molecule	mMCP-1 promoter reporter activity
B1	0.00
B2	0.48
B3	1.20
B4	0.55

System: mADRP promoter
Test: NHR-promoter luciferase screen, mADRP promoter
Format: cell-based, mouse
Conditions: ADRP promoter; HR/ligand component
Outline: as §1

Molecule	Luc. act., normalized to lacZ	Normalized Luc. act., normalized to control
B1	523.7	1.1
B2	351.6	0.7
B3	497.2	1.0
B4	382.8	0.8

Same assay, conditions: transcription factor +/- ligand; control = 1.00

Molecule	mADRP promoter reporter activity
B1	1.05
B2	0.71
B3	1.00
B4	0.77

System: mDio2 promoter
Test: NHR-promoter luciferase screen, mDio2 promoter
Format: cell-based, mouse
Conditions: Dio2; HR component without or with its ligand
Outline: as §1

Molecule	Luc. act., normalized to lacZ	Normalized Luc. act., normalized to control
B1	22.7	1.4
B2	14.8	0.9
B3	21.4	1.4
B4	12.4	0.8

Same assay, conditions: transcription factor +/- ligand; control = 1.00

Molecule	mDio2 promoter reporter activity
B1	1.44
B2	0.94
B3	1.36
B4	0.79

System: Bmal1 promoter
Test: NHR-promoter luciferase screen, Bmal1 promoter
Format: cell-based, mouse
Conditions: Bmal1 promoter; HR component without or with ligand
Outline: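 CV-1 cells co-transfected with 50 ng NHR (V5H6-tagged, pcDNA3.1; homodimer or RXR heterodimer), 100 ng Bmal1 promoter-luciferase and 50 ng LacZ. Luciferase was normalized to LacZ and to a no-NHR/ligand control.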

Molecule	Luc. act., normalized to lacZ	Normalized Luc. act., normalized to control
B1	13.7	0.9
B2	7.5	0.5
B3	17.9	1.1
B4	8.1	0.5

Same assay, conditions: transcription factor +/- ligand; control = 1.00

Molecule	mBmal1 promoter reporter activity
B1	0.88
B2	0.48
B3	1.14
B4	0.52

System: hIFNg promoter
Test: NHR-promoter luciferase screen, hIFNg promoter
Format: cell-based, human
Conditions: IFNg promoter; HR component without or with ligand
Outline: as §1

Molecule	Luc. act., normalized to lacZ	Normalized Luc. act., normalized to control
B1	18.4	1.2
B2	16.4	1.0
B3	22.6	1.4
B4	24.3	1.5

Same assay, conditions: transcription factor +/- ligand; control = 1.00

Molecule	hIFNg promoter reporter activity
B1	1.15
B2	1.03
B3	1.42
B4	1.53
